Results on seven sequences are retold here after the supplement of paper PMC11246515.

The series is described as follows: total protein half-life in vivo (active degradation + dilution); higher = more stable protein.
Where [1] appears, read: E. coli NCM3722 delta-hslV, growth: N-lim chemostat, doubling time 6 h.
The mark [2] stands for this setting: E. coli NCM3722 delta-lon, growth: N-lim chemostat, doubling time 6 h.
Where [3] appears, read: E. coli NCM3722 delta-smpB, growth: N-lim chemostat, doubling time 6 h.
[4] abbreviates: wild type E. coli NCM3722, growth: C-lim chemostat, doubling time 3 h.
Setting [5] is: wild type E. coli NCM3722, growth: C-lim chemostat, doubling time 6 h.
[6] abbreviates: wild type E. coli NCM3722, growth: C-lim chemostat, doubling time 12 h.
Where [7] appears, read: wild type E. coli NCM3722, growth: N-lim chemostat, doubling time 12 h.
Setting [8] is: wild type E. coli NCM3722, growth: P-lim chemostat, doubling time 6 h.
[9] abbreviates: wild type E. coli NCM3722, growth: P-lim chemostat, doubling time 12 h.
[10] abbreviates: E. coli NCM3722 delta-clpP delta-lon delta-hslV, growth: N-lim chemostat, doubling time 6 h.
The mark [11] stands for this setting: wild type E. coli NCM3722, growth: N-lim chemostat, doubling time 6 h.
Where [12] appears, read: E. coli NCM3722 delta-clpP, growth: N-lim chemostat, doubling time 6 h.

± gives the standard deviation of the averaged measurements.

For “MQTQLTEEMRQNARALEADSILRACVHCGFCTATCPTYQLLGDELDGPRGRIYLIKQVLEGNEVTLKTQEHLDRCLTCRNCETTCPSGVRYHNLLDIGRDIVEQKVKRPLPERILREGLRQVVPRPAVFRALTQVGLVLRPFLPEQVRAKLPAETVKAKPRPPLRHKRRVLMLEGCAQPTLSPNTNAATARVLDRLGISVMPANEAGCCGAVDYHLNAQEKGLARARNNIDAWWPAIEAGAEAILQTASGCGAFVKEYGQMLKNDALYADKARQVSELAVDLVELLREEPLEKLAIRGDKKLAFHCPCTLQHAQKLNGEVEKVLLRLGFTLTDVPDSHLCCGSAGTYALTHPDLARQLRDNKMNALESGKPEMIVTANIGCQTHLASAGRTSVRHWIEIVEQALEKE”, the “total protein half-life in vivo” value under setting [1] was 1.54 h; the “total protein half-life in vivo” value under setting [2] worked out at 2.63 ± 0.16 h; the “total protein half-life in vivo” value under setting [3] worked out at 1.29 ± 0.16 h; the “total protein half-life in vivo” value under setting [4] was 1.33 ± 0.28 h; the “total protein half-life in vivo” value under setting [5] turned out to be 2.42 ± 0.12 h; the “total protein half-life in vivo” value under setting [6] amounted to 4.17 ± 0.18 h. Moreover, the “total protein half-life in vivo” value was determined as 2.2136 ± 0.00075 h under setting [7], 2.14 h under setting [8] and 4.65 ± 0.33 h under setting [9].

For the sequence “MKRNLLSSAIIVAIMSLGLTGCDDKKAETETLPPANSQPAAPAPEAKPTEAPVAKAEAKPETPAQPVVDEQAVFDEKMDVYIKCYNKLQIPVQRSLARYADWLKDFKQGPTGEERTVYGIYGISESNLAECEKGVKSAVALTPALQPIDGVAVSYIDAAVALGNTINEMDKYYTQENYKDDAFAKGKTLHQTFLKNLEAFEPVAESYHAAIQEINDKRQLAELKNIEEREGKTFHYYSLAVMISAKQINNLISQDKFDAEAAMKKVSELETLVAQAKEADKGGMNFSFINSAGQYQLEAKKYVRRIRDKVPYSDWDKEQLQDANSSWMVEDSFPRALREYNEMVDDYNSLR”, the “total protein half-life in vivo” value amounted to 6 h under setting [10]; 5.67 ± 0.5 h under setting [3]; 6.58 h under setting [5]; 6.45 h under setting [11]; 10.5 h under setting [7]; 5.81 ± 0.094 h under setting [8]. For the same sequence, under setting [9], the “total protein half-life in vivo” value was 10 h.

Turning to “MKALTYHGPHHVQVENVPDPGVEQADDIILRITATAICGSDLHLYRGKIPQVKHGDIFGHEFMGEVVETGKDVKNLQKGDRVVIPFVIACGDCFFCRLQQYAACENTNAGKGAALNKKQIPAPAALFGYSHLYGGVPGGQAEYVRVPKGNVGPFKVPPLLSDDKALFLSDILPTAWQAAKNAQIQQGSSVAVYGAGPVGLLTIACARLLGAEQIFVVDHHPYRLHFAADRYGAIPINFDEDSDPAQSIIEQTAGHRGVDAVIDAVGFEAKGSTTETVLTNLKLEGSSGKALRQCIAAVRRGGIVSVPGVYAGFIHGFLFGDAFDKGLSFKMGQTHVHAWLGELLPLIEKGLLKPEEIVTHYMPFEEAARGYEIFEKREEECRKVILVPGAQSAEAAQKAVSGLVNAMPGGTI”, the “total protein half-life in vivo” value is, setting by setting: under setting [10], 5.38 ± 0.18 h; under setting [1], 4.446 ± 0.011 h; under setting [2], 4.83 ± 0.24 h; under setting [3], 3.69 ± 2.5 h; under setting [5], 0.447 h; under setting [6], 10.2 h. The “total protein half-life in vivo” value is, setting by setting: under setting [11], 4.75 ± 0.35 h; under setting [7], 7.88 ± 0.2 h; under setting [8], 4.4 ± 0.32 h; under setting [9], 13.1 ± 3.3 h.

Regarding “MVINCAFIGFGKSTTRYHLPYVLNRKDSWHVAHIFRRHAKPEEQAPIYSHIHFTSDLDEVLNDPDVKLVVVCTHADSHFEYAKRALEAGKNVLVEKPFTPTLAQAKELFALAKSKGLTVTPYQNRRFDSCFLTAKKAIESGKLGEIVEVESHFDYYRPVAETKPGLPQDGAFYGLGVHTMDQIISLFGRPDHVAYDIRSLRNKANPDDTFEAQLFYGDLKAIVKTSHLVKIDYPKFIVHGKKGSFIKYGIDQQETSLKANIMPGEPGFAADDSVGVLEYVNDEGVTVREEMKPEMGDYGRVYDALYQTITHGAPNYVKESEVLTNLEILERGFEQASPSTVTLAK”, the “total protein half-life in vivo” value is, setting by setting: under setting [10], 5.85 ± 0.38 h; under setting [12], 4.79 ± 0.2 h; under setting [1], 5.38 ± 0.92 h; under setting [2], 4.78 ± 0.095 h; under setting [3], 4.91 ± 0.26 h; under setting [4], 3.04 ± 0.12 h. Besides, the “total protein half-life in vivo” value was found to be 5.58 ± 0.54 h under setting [5]; 11.6 ± 0.32 h under setting [6]; 4.75 ± 0.06 h under setting [11]; 8.63 ± 0.17 h under setting [7]; 5.842 ± 0.057 h under setting [8]; 12.3 ± 1.1 h under setting [9].

For the sequence “MTTQLEQAWELAKQRFAAVGIDVEEALRQLDRLPVSMHCWQGDDVSGFENPEGSLTGGIQATGNYPGKARNASELRADLEQAMRLIPGPKRLNLHAIYLESDTPVSRDQIKPEHFKNWVEWAKANQLGLDFNPSCFSHPLSADGFTLSHADDSIRQFWIDHCKASRRVSAYFGEQLGTPSVMNIWIPDGMKDITVDRLAPRQRLLAALDEVISEKLNPAHHIDAVESKLFGIGAESYTVGSNEFYMGYATSRQTALCLDAGHFHPTEVISDKISAAMLYVPQLLLHVSRPVRWDSDHVVLLDDETQAIASEIVRHDLFDRVHIGLDFFDASINRIAAWVIGTRNMKKALLRALLEPTAELRKLEAAGDYTARLALLEEQKSLPWQAVWEMYCQRHDTPAGSEWLESVRAYEKEILSRRG”, the “total protein half-life in vivo” value is, setting by setting: under setting [10], 3.97 ± 0.74 h; under setting [12], 2.97 ± 0.12 h; under setting [2], 3.14 ± 0.07 h; under setting [3], 2.94 ± 0.21 h; under setting [5], 5.85 ± 1.9 h; under setting [6], 9.47 h. In addition, the “total protein half-life in vivo” value is, setting by setting: under setting [7], 3.73 h; under setting [8], 5.31 ± 0.18 h; under setting [9], 8.02 ± 5 h.

For the sequence “MQVDLLGSAQSAHALHLFHQHSPLVHCMTNDVVQTFTANTLLALGASPAMVIETEEASQFAAIASALLINVGTLTQPRAQAMRAAVEQAKSSQTPWTLDPVAVGALDYRRHFCHELLSFKPAAIRGNASEIMALAGIANGGRGVDTTDAAANAIPAAQTLARETGAIVVVTGEMDYVTDGHRIIGIHGGDPLMTKVVGTGCALSAVVAACCALPGDTLENVASACHWMKQAGERAVARSEGPGSFVPHFLDALWQLTQEVQA”, the “total protein half-life in vivo” value under setting [10] was 4.08 ± 0.34 h; the “total protein half-life in vivo” value under setting [12] was determined as 3.41 ± 0.17 h; the “total protein half-life in vivo” value under setting [1] worked out at 3.27 ± 0.13 h; the “total protein half-life in vivo” value under setting [2] is 3.94 h; the “total protein half-life in vivo” value under setting [3] worked out at 3.42 ± 0.044 h; the “total protein half-life in vivo” value under setting [4] came to 3.01 ± 0.68 h. Also, the “total protein half-life in vivo” value reads like this: under setting [5], 4.89 ± 1.2 h; under setting [6], 8.48 ± 1 h; under setting [11], 3.4 ± 0.41 h; under setting [7], 5.17 ± 0.24 h; under setting [8], 5.64 ± 0.14 h; under setting [9], 10.3 ± 0.67 h.

As for “MIYLRKANERGHANHGWLDSWHTFSFANYYDPNFMGFSALRVINDDVIEAGQGFGTHPHKDMEILTYVLEGTVEHQDSMGNKEQVPAGEFQIMSAGTGIRHSEYNPSSTERLHLYQIWIMPEENGITPRYEQRRFDAVQGKQLVLSPDARDGSLKVHQDMELYRWALLKDEQSVHQIAAERRVWIQVVKGNVTINGVKASTSDGLAIWDEQAISIHADSDSEVLLFDLPPV”, the “total protein half-life in vivo” value worked out at 4.3 ± 0.072 h under setting [12]; 4.52 ± 0.68 h under setting [1]; 4.67 ± 0.054 h under setting [2]; 4.36 ± 0.26 h under setting [3]; 2.84 ± 0.096 h under setting [4]; 5.31 ± 0.29 h under setting [5]. The “total protein half-life in vivo” value is, setting by setting: under setting [6], 8.6 ± 2.5 h; under setting [11], 4.51 ± 0.2 h; under setting [7], 7.3 ± 0.36 h; under setting [8], 5.54 ± 0.17 h; under setting [9], 11.6 ± 0.069 h.
